# Source: patent US9114104B2, “Proteinase K inhibitors, methods and compositions therefor” (Life Technologies Corporation, priority 2008, dated 2015)
# “And” between values parts separate entries of the source, which are not always exact repeats. Equal entries are not always repeated.
# What was measured:
# Assay type in all cases: biochemical
# proteinase K [1] = molecular target: T1, proteinase K (Parengyodontium album, UniProt P06873); assay: Detection of β-actin RNA in HeLa cell lysates after stop solution (in vitro validation); conditions: FIG. 6; ~10,000 HeLa cells lysed, β-actin RT-PCR
# T1 sequence (P06873 106-384): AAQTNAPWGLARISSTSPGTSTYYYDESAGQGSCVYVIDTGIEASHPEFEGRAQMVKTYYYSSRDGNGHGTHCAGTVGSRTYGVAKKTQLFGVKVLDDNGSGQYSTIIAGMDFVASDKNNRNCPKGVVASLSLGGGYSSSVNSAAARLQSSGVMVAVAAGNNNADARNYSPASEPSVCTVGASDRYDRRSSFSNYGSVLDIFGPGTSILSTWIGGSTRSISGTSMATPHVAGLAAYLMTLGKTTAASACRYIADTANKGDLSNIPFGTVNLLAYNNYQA
# Experimental: HeLa cells (˜10,000 cells) were lysed in 50 μl lysis solution for 5 minutes at room temperature. Stop solution (5 μl) was then added; the lysate-stop solution was mixed, and incubated for 2 minutes at room temperature. A volume of 10 μl of stopped lysate was added to a 50 μl RT reaction followed by addition of 4 μl of RT reaction into a 20 μl PCR reaction using the β-actin primers/probe of the TaqMan® Gene Expression Cells-to-CT™ Kit (Applied Biosystems).
# proteinase K [2] = molecular target: T1, proteinase K; assay: Indirect linked assay: proteinase K inhibition read out by reverse transcriptase real time PCR of Xeno RNA template (Cells-to-CT kit); conditions: for lowest concentration in the stopped mixture with inhibitory activity for proteinase K: Example 2, FIG. 1, tested 1 mM to 0.05 mM in stopped mixture; for proteinase K inhibitory activity: all concentrations tested; for Ct (cycle threshold): all concentrations tested (1 mM to 0.05 mM), no Xeno RNA detected
# Text: The present example provides for inhibition of proteinase K in the context of preparing samples for nucleic acid detection. Said preparation of samples is described by pending U.S. patent application Ser. No. 12/122,274 filed May 16, 2008 entitled “Sample Preparation for In Situ Nucleic Acid Analysis, Methods and Compositions Therefor,” hereby incorporated by reference in its entirety. Embodiments of said patent application provide a process for preparing a sample containing RNA for in situ analysis of RNA or a surrogate thereof. In some embodiments, the process comprises contacting the sample containing RNA with a lysis mixture comprising a polypeptide having protease activity under conditions and for a time to produce a lysate, and admixing at least a portion of the lysate with a stop mixture that comprises an inhibitor of the polypeptide having protease activity at substantially the same temperature as the contacting step to form a stopped mixture. The resultant stopped mixture is preferably compatible with in situ reverse transcriptase and DNA polymerase reactions.
# Methoxysuccinyl tetrapeptide chloromethylketone compounds synthesized as set forth in Example 1 herein were analyzed for inhibitory activity of proteinase K in such stopped mixtures as described below. Functional validation for the nucleic acid detection system using inhibitors of embodiments herein was carried out by measuring mRNA levels in biological samples using the TaqMan® Gene Expression Cells-to-CT™ Kit and the TaqMan® Cells-to-CT™ Control Kit (Applied Biosystems, Foster City, Calif.). MicroAmp® optical 96-well reaction plates were purchased from Applied Biosystems. Disposable reagent reservoirs were purchased from VistaLab Technologies, Inc (Mt. Kisco, N.Y.). Reverse transcription (RT) reactions were performed at 37° C. for 60 min, 95° C. for 5 min, and cooled to 4° C. by using GeneAmp® PCR systems 9700 (Applied Biosystems). Real time PCR was performed by using 7500 Fast Real-Time PCR System. (Applied Biosystems).
# The present indirect linked assay measures the amount of inhibition of proteinase K activity by assaying reverse transcriptase real time PCR amplification of a template, which amplification is dependent upon reverse transcriptase activity.
# Stop solutions (100 μl) contained the following reagents (10× concentration):
# Test inhibitor, 11 mM (final concentration when diluted into stopped mixture is 1 mM). Test inhibitor was also used at concentrations such that, when diluted with a lysis mixture to form a stopped mixture as described below, the final concentration of inhibitor in the stopped mixture was 0.75 mM, 0.5 mM, 0.25 mM, 0.10 mM, 0.05 mM and 0 mM (control).
# Proteinase K lysis solution (50 μL (no added DNase)) from the TaqMan® gene expression Cells-to-CT™ kit (Applied Biosystems) was aliquoted into 18 tubes. To the test samples (these are a working equivalent to lysis mixtures in the Cells-to-CT™ workflow), stop solution (5 μL) was added; the tubes were mixed and held for 2 min at room temperature. For the control reactions, 50 μl of proteinase K buffer was mixed with 5 μl of stop mix without inhibitor and the resulting reaction mixture was heated at 95° C. for 10 min to thermally inactivate the proteinase K reaction. Next, reverse transcription reagents were prepared, i.e. 15 μL 2×RT buffer, and 1.5 μL of 20×RT enzyme mix, were aliquoted and mixed in the wells of a 96 well plate. To this RT solution, 13.5 μL of each proteinase K containing stopped mixture was added and the solution was mixed well. The resulting mixtures were incubated at room temperature for 1 hr for residual proteinase K activity to degrade the RT enzyme. After 1 hr incubation at room temperature, 1 μL of Xeno™ RNA Control template (Applied Biosystems P/N 4386995 diluted to 25,000 copies/μL in 10 ng/μL poly A) was added to all wells except for the no template control wells. […]
# proteinase K [3] = molecular target: T1, proteinase K; assay: Direct assay: residual proteinase K activity on BSA substrate, precast SDS protein gel
# Experimental: For the precast SDS denaturing protein gel analysis data of FIG. 3, proteinase K (50 μl of 100 μg/ml) lysis mixture without DNase (as for Example 2) was mixed with 5 μl of stop solution with varying amounts of MeOSuc-AAPF-CH2Cl (SEQ ID NO:5) and incubated for 10 min at room temperature. Ultrapure BSA (10 μl of 5 mg/ml, Applied Biosystems) was added to each sample and the samples were held for 10 min at room temperature. The reaction mixture was heated for 30 min at 95° C. and analyzed using precast protein gels (BIO-RAD, Hercules, Calif.). From the 65 μl of total reaction mixture, 10 μl reaction mixture was mixed with 5 μl of gel loading dye and further heated at 95° C. for 5 min. Then, the reactions were kept on ice for 2 min and loaded on the gel. Control reactions, with and without BSA, were also carried out. […]
# The precast protein gel was run at 120 V for 1 h using 1× Tris/glycine/SDS buffer (BIO-RAD, Hercules, Calif.). […] The gel was analyzed using AlphaEase™ FC software (Alpha Innotech, San Leandro, Calif.). […]
# Proteinase K (50 μl of 100 μg/ml) lysis mixture without DNase (as for Example 2) was mixed with 5 μl of stop solution with varying amounts of MeOSuc-AAAPL-CH2Cl (SEQ ID NO:7) and incubated for 10 min at room temperature. […] The reaction mixture was heated for 30 min at 95° C. and analyzed using precast protein gels (BIO-RAD, Hercules, Calif.). […]
# proteinase K [4] = molecular target: T1, proteinase K; assay: Direct assay: residual proteinase K activity on BSA substrate, Protein 80 Bioanalyzer chip; conditions: FIG. 2
# Experimental: A direct assay for inhibition of proteinase K activity by MeOSuc-AAPF-CH2Cl (SEQ ID NO:5) was carried out using bovine serum albumin (BSA) as substrate and analyzing products using each Bioanalyzer chips and precast protein gels. Such direct assays were carried out to separate inhibition of proteinase K by a test inhibitor from any effects the stopped mixture may have on an RT-PCR reaction.
# The reaction mixtures included the proteinase K solution (50 μL, 100 μg/ml) mixed with 5 μL of stop solution having varying amounts of tetrapeptide, MeOSuc-AAPF-CH2Cl (SEQ ID NO:5), as for Example 2. Incubation was for 10 min at room temperature. To assay for proteinase K activity, ultrapure BSA (12 μL of 50 mg/ml) was added to each sample and the samples were held for 10 min at room temperature. Resultant mixtures were heated for 30 min at 95° C. and analyzed using a Protein 80 Bioanalyzer chip (2100 Bioanalyzer, Agilent, Santa Clara, Calif.). The Bioanalyzer protein gel data is provided in FIG. 2, in which intact Ultrapure BSA (Applied Biosystems) is at about 70 kDa, and proteinase K is at about 35 kDa. The lanes of FIG. 2 are labeled as follows from left to right: Ladder; BSA only; No BSA (proteinase K only); MeOSuc-AAPF-CH2Cl (SEQ ID NO:5) in the stopped mixture at 1 mM, 0.75 mM, 0.5 mM, 0.25 mM, 0.125 mM, and 0 mM.
substance,measurement,setting,value
MeOSuc-AlaAlaAlaProPhe-CH2Cl (AAAPF; HELM PEPTIDE1{[COC(=O)CCC(=O)[*:2]].A.A.A.P.F.[ClC[*:1]]}$$$$V2.0; SMILES COC(=O)CCC(=O)N[C@@H](C)C(=O)N[C@@H](C)C(=O)N[C@@H](C)C(=O)N1CCC[C@H]1C(=O)N[C@@H](Cc1ccccc1)C(=O)CCl) [MeOSuc-AAAPF-CH2Cl],concentration providing effective inhibition of proteinase K,proteinase K [1],about 0.1 mM
same,concentration required to achieve the same level of inhibition as MeOSuc-AAPF-CH2Cl at 0.05 mM,proteinase K [2]; FIG. 5 compared to FIG. 1,0.1 mM
MeOSuc-AlaAlaAlaProVal-CH2Cl (AAAPV; HELM PEPTIDE1{[COC(=O)CCC(=O)[*:2]].A.A.A.P.V.[ClC[*:1]]}$$$$V2.0; SMILES COC(=O)CCC(=O)N[C@@H](C)C(=O)N[C@@H](C)C(=O)N[C@@H](C)C(=O)N1CCC[C@H]1C(=O)N[C@H](C(=O)CCl)C(C)C) [MeOSuc-AAAPV-CH2Cl],concentration providing effective inhibition of proteinase K,proteinase K [1],0.5 mM
same,concentration required to achieve the same level of inhibition as MeOSuc-AAPV-CH2Cl at 0.25 mM,proteinase K [2]; FIG. 5,0.75 mM
methoxysuccinyl-AAAPL-chloromethyl ketone (HELM PEPTIDE1{[COC(=O)CCC(=O)[*:2]].A.A.A.P.L.[ClC[*:1]]}$$$$V2.0; SMILES COC(=O)CCC(=O)N[C@@H](C)C(=O)N[C@@H](C)C(=O)N[C@@H](C)C(=O)N1CCC[C@H]1C(=O)N[C@@H](CC(C)C)C(=O)CCl) [MeOSuc-AAAPL-CH2Cl],concentration providing effective inhibition of proteinase K,proteinase K [1],about 0.1 mM
same,lowest concentration in the stopped mixture inhibitory for proteinase K activity,"proteinase K [2]; Example 6, FIG. 5, tested 1 mM to 0.05 mM",about 0.05 mM
same,lowest concentration capable of inhibiting proteinase K (BSA present in gel lane),"proteinase K [3]; FIG. 7, tested 1 mM to 0.05 mM in stopped mixture",0.1 mM and 0.10 mM
methoxysuccinyl-AAPF-chloromethyl ketone (HELM PEPTIDE1{[COC(=O)CCC(=O)[*:2]].A.A.P.F.[ClC[*:1]]}$$$$V2.0; SMILES COC(=O)CCC(=O)N[C@@H](C)C(=O)N[C@@H](C)C(=O)N1CCC[C@H]1C(=O)N[C@@H](Cc1ccccc1)C(=O)CCl) [MeOSuc-AAPF-CH2Cl],lowest concentration in the stopped mixture with inhibitory activity for proteinase K,proteinase K [2]; listed as MeOSuc-AlaAlaProPhe-CH2Cl,0.05 mM
same,average Ct (cycle threshold),"proteinase K [2]; FIG. 1, 0.05 mM inhibitor",about 30
same,lowest concentration capable of inhibiting proteinase K,proteinase K [4]; 10 min incubation with proteinase K (100 μg/ml) before BSA,0.125 mM
same,concentration capable of inhibiting proteinase K when incubated for a longer period prior to BSA,proteinase K [4]; longer incubation with proteinase K before addition of BSA substrate,< 0.125 mM
same,inhibiting concentration relative to MeOSuc-AAPV-CH2Cl,"proteinase K [3]; FIG. 3, compare lanes at 0.5 mM and 0.25 mM",at least half that of MeOSuc-AAPV-CH2Cl
methoxysuccinyl-AAPL-chloromethyl ketone (HELM PEPTIDE1{[COC(=O)CCC(=O)[*:2]].A.A.P.L.[ClC[*:1]]}$$$$V2.0; SMILES COC(=O)CCC(=O)N[C@@H](C)C(=O)N[C@@H](C)C(=O)N1CCC[C@H]1C(=O)N[C@@H](CC(C)C)C(=O)CCl) [MeOSuc-AAPL-CH2Cl],concentration providing effective inhibition of proteinase K,proteinase K [1],about 0.1 mM
methoxysuccinyl-APAF-chloromethyl ketone (HELM PEPTIDE1{[COC(=O)CCC(=O)[*:2]].A.P.A.F.[ClC[*:1]]}$$$$V2.0; SMILES COC(=O)CCC(=O)N[C@@H](C)C(=O)N1CCC[C@H]1C(=O)N[C@@H](C)C(=O)N[C@@H](Cc1ccccc1)C(=O)CCl) [MeOSuc-APAF-CH2Cl],proteinase K inhibitory activity,proteinase K [2]; FIG. 1,inactive at all concentrations tested
same,Ct (cycle threshold),proteinase K [2]; FIG. 1,40
methoxysuccinyl-APAL-chloromethyl ketone (HELM PEPTIDE1{[COC(=O)CCC(=O)[*:2]].A.P.A.L.[ClC[*:1]]}$$$$V2.0; SMILES COC(=O)CCC(=O)N[C@@H](C)C(=O)N1CCC[C@H]1C(=O)N[C@@H](C)C(=O)N[C@@H](CC(C)C)C(=O)CCl) [MeOSuc-APAL-CH2Cl],lowest concentration in the stopped mixture with inhibitory activity for proteinase K,proteinase K [2],about 0.5 mM
methoxysuccinyl-APAV-chloromethyl ketone (HELM PEPTIDE1{[COC(=O)CCC(=O)[*:2]].A.P.A.V.[ClC[*:1]]}$$$$V2.0; SMILES COC(=O)CCC(=O)N[C@@H](C)C(=O)N1CCC[C@H]1C(=O)N[C@@H](C)C(=O)N[C@H](C(=O)CCl)C(C)C) [MeOSuc-APAV-CH2Cl],proteinase K inhibitory activity,proteinase K [2]; FIG. 1,inactive at all concentrations tested
same,Ct (cycle threshold),proteinase K [2]; FIG. 1,40
